In patent US20260231968A1, “AN ECO-FRIENDLY, SUSTAINABLE FOOD PRESERVATIVE” (priority 2023, published 2026):

Assays:
Candida albicans [1] = assay: Dose-response growth assay in 96 well plates, C. albicans in RPMI-MOPS (also zinc and pH variation); type: cell-based
Experimental: C. albicans were seeded on 10 cm plates of YAG-agarose for 1-2 days in a humidified incubator at 30° C. C. albicans colonies were used for 48 hours after their appearance before disposal.
RPMI-MOPS (RPMI Powder, 165 mM MOPS, and Pen/Strep solution (x100)) was inoculated with either 50,000 spores/ml of A. flavus, or 1 colony/10 ml of C. albicans. The inoculated RPMI-MOPS was poured into a Nunclone™ coated 96-well plate (100 μl per well), with the different treatments and controls. The 96-well plate was then incubated in a shaker/incubator plate-reader at 30° C. where the absorbance (600 nm) was monitored and measured every 10 minutes.
In Example 4, several ZnCl2 concentrations were added to 1 μM of His-psoriasin.
In Example 5, RPMI-MOPS was titrated to the different pH levels using 1M NaOH solution (RMPI-MOPS, initial pH ~4).
In order to evaluate the ability of recombinant His-psoriasin to inhibit the growth of Candida albicans, a single colony/10 ml was incubated in a RPMI-MOPS medium with variable concentrations of psoriasin added to each well. Fungi growth was monitored using an absorbance plate reader every 10 minutes at 600 nm. No apparent growth was measured in psoriasin concentrations higher than 300 nM for C. albicans (FIG. 2).
In order to test the effect of zinc ions on the ability of psoriasin to inhibit fungal growth, Candida albicans was incubated in a RPMI-MOPS medium in the presence of 1 μM psoriasin with variable concentrations of ZnCl2.
Candida albicans was incubated in a RPMI-MOPS medium in the presence of 10 μM His-psoriasin at variable pHs. […] Accordingly, effective anti-fungal activity of His-psoriasin can be obtained also at pH levels that are lower than pH=8.

Aspergillus flavus = assay: Chickpea paste assay inoculated with A. flavus; type: cell-based; conditions: for fungal load count on YAG-agarose plates: 30° C, after 48 and 72 hours
Experimental: Sterilized and frozen chickpeas (100 g) were boiled for 15 minutes and ground using a blender. The ground chickpeas were treated with chloramphenicol (34 μg/μl) and tetracycline (12.5 μg/μl) to prevent microbial growth. The chickpeas were then inoculated with 500 spores/g of A. flavus and divided into groups of 7 g, and each group was treated with 7 ml of PBS×1 with different His-psoriasin concentrations to reach final concentrations of 0 μM, 50 μM, 100 μM, and 200 μM. The different groups were then divided into 1 g of treated and inoculated chickpeas in 6 well plates (1 g/well) and incubated in a humidified incubator at 30° C. Every day, 1 g of treated chickpeas from each group was diluted in PBS×1 and seeded on YAG-agarose plates to count colonies and calculate the fungi development through time.
For the visual evaluation of the treated/non-treated and inoculated/not-inoculated samples, the samples were prepared in the same way, but incubated at room temperatures and divided into groups of 3 g each.
Chickpeas were boiled and ground and then treated with a combination of chloramphenicol and tetracycline antibiotics (to eliminate bacterial growth) at final concentrations of 34 μg/μl and 12.5 μg/μl, respectively. Samples were divided into ‘inoculated with Aspergillus flavus’ and ‘non-inoculated’, and ‘treated’ and ‘non-treated’ with 180 μM His-psoriasin. All samples were placed in 20° C.
In a follow-up experiment, inoculated chickpea paste samples were treated with three different recombinant His-psoriasin concentrations, namely 50 μM, 100 μM, and 200 μM, and incubated at 30° C. Fungal load count was performed on YAG-agarose plates with antibiotics (chloramphenicol (34 μg/μl) and tetracycline (12.5 μg/μl)) to prevent bacterial growth after 48 and 72 hours.

[2] = system: microbial growth in bread/rolls; assay: Microbial growth in baked bread/rolls stored at room temperature; type: cell-based; conditions: 0.3% psoriasin admixed with dough before baking, after 10 days at room temperature
Experimental: Bread or roll dough prepared with 150 ml PBS, 0.3% psoriasin, (1.5 g protein in 150 ml DDW) or 0.3% calcium propionate (1.5 g calcium propionate in 150 ml DDW) was baked in a bread maker according to the manufacturer protocol using the following recipe: 180 ml water (or 150 ml PBS+30 ml water), 1 teaspoon of salt, 2 spoons of sugar, 2 spoons of oil, 300 g of flour, and 1 teaspoon of yeast. Following baking, the bread was sliced, each slice/roll was weighed and kept in a separate small smasher bag until analysis.
Bread/rolls were stored at room temperature. Each day, a roll/slice of bread from each group was mixed with autoclaved 1×PBS at a weight ratio of 1:10 to the weighted piece of bread in the bag. The bread was then smashed in a smasher at normal speed for 120 seconds. 10 mL from the smashed bread was removed, vortexed, and diluted with autoclaved 1×PBS as necessary. Samples were plated on both PDA and LB plates and incubated at 30° C. and 37° C., respectively. All samples were performed in duplicate.

Candida albicans [3] = assay: Microbial Growth Inhibition Test, broth microdilution optical method; type: cell-based; conditions: RPMI-MOPS
Experimental: (§1) The IC90 of psoriasin for several microorganisms was determined by Microbial Growth Inhibition Tests. The tests were performed using the Broth Microdilution Optical Method based on standardized protocols M27 (yeasts) and M38 (filamentous fungi) of the Clinical and Laboratory Standards Institute. […] MOPS, LB (Luria-Bertani), and TSB ([…]) medium types were used, depending on the species being tested. The absorbance was calibrated to each species, and was measured between 450 nm to 650 nm.

Lactococcus lactis = assay: as above; type: cell-based; conditions: TSB
Experimental: as §1

Escherichia coli = assay: as above; type: cell-based; conditions: LB, TSB
Experimental: as §1

Listeria monocytogenes = assay: as above; type: cell-based; conditions: LB, TSB
Experimental: as §1

Enterobacter cloacae = assay: as above; type: cell-based; conditions: TSB
Experimental: as §1

Lactobacillus saeki = assay: as above; type: cell-based; conditions: TSB
Experimental: as §1

3T3 cells = assay: Cell viability assay based on luminescence (cell-titer kit); conditions: 2-74 μM, 24 h
Experimental: To assess any potential deleterious effects of psoriasin, such as cytotoxicity, a cell viability assay was performed based on luminescence, in which decreased luminescence is indicative of reduced cell viability. Various concentrations of psoriasin ranging from 2-74 μM, were tested on 3T3 cells. Approximately 5000 cells were plated in each well of a 96 well-plate and following overnight incubation, psoriasin was added in the indicated concentration within the medium to the cells (performed in triplicate). Luminescence values were recorded after an additional 24 h using the cell-titer kit (Promega Ltd.) in a BioTek Synergy plate reader.

B1: psoriasin: Recombinant human psoriasin (S100a7) containing a histidine tag, amino acid sequence SEQ ID NO: 11, expression vector pET-28a (protein, listed as Homo sapiens)
chain: MSNTQAERSIIGMIDMFHKYTRRDDKIEKPSLLTMMKENFPNFLSACDKKGTNYLADVFEKKDKNEDKKIDFSEFLSLLGDIATDYHKQSHGAAPCSGGSQ
With B1 the “C. albicans proliferation at variable pHs” value (Candida albicans [1]; 10 μM His-psoriasin, RPMI-MOPS) was “prevent C. albicans proliferation at all the tested pH levels”, the “psoriasin concentration above which no apparent growth was measured” value (Candida albicans [1]; C. albicans single colony/10 ml, RPMI-MOPS, absorbance 600 nm) was “higher than 300 nM” and the “ZnCl2 concentration above which the fungi retained their full ability to grow” value (Candida albicans [1]; in the presence of 1 μM psoriasin) was “above 1.2 μM”. The “signs of fungal growth in chickpea paste (visual)” value (Aspergillus flavus; 180 μM, 20° C, after 10 days) was “did not show any signs of fungal growth”, the “fungal load count on YAG-agarose plates” value (Aspergillus flavus; 200 μM) was “No fungi had developed” and the “fungal load count on YAG-agarose plates” value (Aspergillus flavus; lower concentrations (50 μM, 100 μM)) was “reduced growth was observed”. The “microbial growth in rolls” value [2] was “no microbial growth was detected”, the IC90 (Candida albicans [3]) was 0.5 µM and the IC90 (Lactococcus lactis) was 45 µM. It also gave an IC90 (Escherichia coli) of 100 µM, an IC90 (Listeria monocytogenes) of 75 µM and an IC90 (Enterobacter cloacae) of 28 µM. The IC90 (Lactobacillus saeki) was 50 µM and the “cell viability (luminescence)” value (3T3 cells) was “No change in luminescence was detected”.
